From publication PMC8184781, “A histone H3K4me1-specific binding protein is required for siRNA accumulation and DNA methylation at a subset of loci targeted by RNA-directed DNA methylation” (Nature Communications, 2021)

Key:
Assay in all cases: ITC; Microcal PEAQ-ITC, 20 °C; protein about 0.8–0.12 mM (so in the source), peptide about 1.0–1.5 mM; 100 mM NaCl, 20 mM HEPES, 2 mM β-mercaptoethanol (pH 7.0 in the methods, [7.4] in the footnote of Supplementary Table 1)
[1] = target: RDM15 Tudor domain (residues 598-662) D645A (Arabidopsis thaliana)
[2] = target: RDM15 Tudor domain (residues 598-662) Q654A (Arabidopsis thaliana)
[3] = target: RDM15 Tudor domain (residues 598-662), wild type (Arabidopsis thaliana)

| Kd [1] [µM] | stoichiometry N [1] | Kd [2] [µM] | stoichiometry N [2] | stoichiometry N [3] | Kd [3] [µM] | Substance |
| --- | --- | --- | --- | --- | --- | --- |
| 62.7 | 0.86 | 60.8 | 1.08 | 0.96 | – | H3(1-15) K4me1 peptide |
| – | – | – | – | 1.03 | 30.9 | H3K4me2 peptide |
| – | – | – | – | 0.9 | 66.2 | H3K4me3 peptide |
